Columns and labels:
[1] = molecular target: GluA2-γ2_(FRET) (GluA2_(FRET) fused through a GGS linker to full-length mouse TARPγ2) (rat | mouse) (UniProt O88602); assay: FRET or BRET; single-molecule FRET between Alexa-555 and Alexa-647 on Cys467 of two subunits; receptors from detergent-solubilised HEK293T cells held on the slide by antibody (in situ immunoprecipitation); 1 mM Glu + 100 µM CTZ
[2] = molecular target: GluA2-γ2_(FRET) (GluA2_(FRET) fused through a GGS linker to full-length mouse TARPγ2) (rat | mouse) (UniProt O88602); assay: FRET or BRET; single-molecule FRET between Alexa-555 and Alexa-647 on Cys467 of two subunits; receptors from detergent-solubilised HEK293T cells held on the slide by antibody (in situ immunoprecipitation); 1 mM Glu + 100 µM GYKI-52466

Substance: GluA2-γ2_(FRET) (GluA2_(FRET) fused through a GGS linker to full-length mouse TARPγ2) (from UniProt O88602 1-323) (receptor)
- FRET efficiency (highest-occurring state, with CTZ) [1]: 0.93
- FRET efficiency (highest-occurring state, with GYKI-52466) [2]: 0.82

Source: publication PMC11563869
